These results are taken from paper PMC8188405, “When is an obscurin variant pathogenic? The impact of Arg4344Gln and Arg4444Trp variants on protein–protein interactions and protein stability” (Human Molecular Genetics, 2021).

What is called Kd is the concentration at which binding is half-saturated. A high value points to a looser complex.

Where a chain is given by its changes, count along the chain named. Names and notes keep the numbering of the source.

The chains are these.
T1: titin Z8-Z9 (human, UniProt Q8WZ42-12 1698-1931)
T1 construct: titin, human, domains Z8-Z9, residues 1698 to 1931 based on NM_001267550/NP_001254479 (transcript variant IC); numbers count on: transcript variant IC; The vector encodes His6 followed by a TEV cleavage site; no cleavage is described; source: E. coli BL21-CodonPlus (DE3)-RIPL, purified (Ni-NTA)
T1 sequence (looked up): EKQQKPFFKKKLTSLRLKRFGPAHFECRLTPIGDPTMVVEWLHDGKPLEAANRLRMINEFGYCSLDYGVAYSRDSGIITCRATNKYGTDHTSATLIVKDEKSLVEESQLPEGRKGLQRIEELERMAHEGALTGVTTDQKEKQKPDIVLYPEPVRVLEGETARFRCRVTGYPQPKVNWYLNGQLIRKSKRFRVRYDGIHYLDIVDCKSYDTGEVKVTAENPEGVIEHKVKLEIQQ

B1: human full-length phospholamban (peptide, UniProt P26678 1-52, looked up)
chain: MEKVQYLTRSAIRRASTIEMPQQARQKLQNLFINFCLILICLLLICIIVMLL
notes: phospholamban, human, full length (synthetic); Kept in buffer with Triton X-100; seen on gels as monomeric and pentameric bands, both of which were pulled down by Ig58-Ig59; also called PLN; source: synthetic peptide, bought: Pepscan
B2: phospholamban transmembrane region PLN(23-52) (peptide, UniProt P26678 23-52, looked up)
chain: QARQKLQNLFINFCLILICLLLICIIVMLL
notes: phospholamban, human, transmembrane region, residues 23-52 (synthetic); source: synthetic peptide, bought: Pepscan
B3: obscurin Ig58-Ig59 (wild type) (domain or fragment, human, UniProt Q5VST9 4337-4521, looked up)
chain: TAKNTVVRGLENVEALEGGEALFECQLSQPEVAAHTWLLDDEPVHTSENAEVVFFENGLRHLLLLKNLRPQDSCRVTFLAGDMVTSAFLTVRGWRLEILEPLKNAAVRAGAQACFTCTLSEAVPVGEASWYINGAAVQPDDSDWTVTADGSHHALLLRSAQPHHAGEVTFACRDAVASARLTVLG
modifications: labelled with the Monolith NT Protein Labeling kit RED-NHS (in the MST experiments only)
notes: obscurin, human, domains Ig58-Ig59, residues 4337-4521 based on NM_001098623/NP_001092093 (transcript variant B); The vector encodes His6 followed by a TEV cleavage site; no cleavage is described; The His6 tag holds the protein on Ni-NTA beads in the pull-downs; also called Ig58-Ig59WT; O5859; source: E. coli BL21-CodonPlus (DE3)-RIPL, purified (Ni-NTA); not shown: His6, N-terminal, kept
B4: obscurin Ig58-Ig59 R4444W (domain or fragment, human, UniProt Q5VST9 4337-4521, looked up)
chain: B3 chain with R108W
modifications: labelled with the Monolith NT Protein Labeling kit RED-NHS
notes: The variant occurs in the human population; also called R4444W variant; Arg4444Trp; source: E. coli BL21-CodonPlus (DE3)-RIPL, purified (Ni-NTA)
B5: obscurin Ig58-Ig59 R4344Q, A4484T double variant (domain or fragment, human, UniProt Q5VST9 4337-4521, looked up)
chain: B3 chain with R8Q, A148T
modifications: labelled with the Monolith NT Protein Labeling kit RED-NHS
notes: source: E. coli BL21-CodonPlus (DE3)-RIPL, purified (Ni-NTA)
B6: obscurin Ig58-Ig59 R4344Q (domain or fragment, human, UniProt Q5VST9 4337-4521, looked up)
chain: B3 chain with R8Q
modifications: labelled with the Monolith NT Protein Labeling kit RED-NHS (in the MST experiments only)
notes: The variant occurs in the human population (found in up to 15% of African Americans); also called R4344Q variant; Arg4344Gln; source: E. coli BL21-CodonPlus (DE3)-RIPL, purified (Ni-NTA); not shown: His6, N-terminal, kept

In assay [1] the target is B3. Kind of assay: MST; obscurin Ig58-Ig59 labelled with RED-NHS (typically 50-100 nM); unlabelled PLN peptides diluted serially; PBS, 0.2% (v/v) Triton X-100, 2 mM DTT; Monolith NT.115; one-site binding model. The settings on record: both partners purified.
The next assay deals with T1, titin Z8-Z9. Kind of assay: MST; obscurin Ig58-Ig59 labelled with RED-NHS (typically 50-100 nM); unlabelled titin Z8-Z9 or ObB diluted serially; PBS, 2 mM DTT; Monolith NT.115; one-site binding model. Particulars: both partners purified.

As for B1, in assay [1], the Kd worked out at 18.9 µM.

On to B2, for which binding in assay [1] was characterised by a dissociation constant (Kd) of 58.5 µM.

Turning to B3, the Kd with titin Z8-Z9 is 7.8 µM.

Take B4: in the assay with titin Z8-Z9, the Kd stood at 6.4 µM.

In the case of B5, the binding result with titin Z8-Z9 is given as “binds”.

Consider B6, for which binding in the assay with titin Z8-Z9 was characterised by a dissociation constant (Kd) of 6.6 µM.
